Results as given in the supplement of paper PMC12764529.
± gives the half width of the 95% confidence interval.

How the values were obtained:
[1] = folding stability dG unfold (combined trypsin and chymotrypsin); higher = more stable
How it was run: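 How resistant each design was to proteolysis was captured as K50, inferred by Bayesian fitting of sequencing counts. Unfolding free energy was then derived relative to a sequence-predicted unfolded-state K50 and a shared folded-state K50, per protease or combined. Digestion used trypsin and chymotrypsin at 11 threefold-diluted concentrations plus a no-protease condition, on mini-proteins under 80 residues without cysteine in a PA-tagged cDNA display construct. Designs were kept only when AlphaFold2 dimer inter-PAE was above 15.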

[2] = folding stability dG unfold from trypsin proteolysis; higher = more stable
Procedure: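 Folding stability of de novo designed mini-proteins (<80 aa, no Cys; designed by TrROS, TrMRF, ProteinMPNN and the joint model) was measured by cDNA display proteolysis with trypsin and chymotrypsin. Each protease was used at 11 concentrations in a threefold dilution series plus a no-protease condition. K50 was inferred by Bayesian fitting of sequencing counts, and dG unfold was derived against a sequence-predicted unfolded-state K50 (Tsuboyama et al. method). Sequences shown include variable-length N-terminal GS-type padding (SAGGSAGG...) inside a display construct carrying a PA tag. Rows were kept only if the AF2 dimer inter-PAE was >15, to exclude likely homo-oligomers.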

Row | Sequence | folding stability dG unfold [1] | folding stability dG unfold [2]
1 | SAMDIEIEPTEGMMEIKLPGKEIHIMQHPNYMHIQIKYPEGEPVSIPIDPNSPPEDMIDNLLKLLEKAGSAG [r14_618_TrROS] | -2.09 ± 2.3 kJ/mol | 1.78 ± 0.176 kJ/mol
2 | SAGGSPIYVRIEWEPPGNGKEREKEIPIKNVDSPDQLVDEAKEEAMKDGGPIKDIEVYDPDDGRPFPLSAGG [r13_771_TrROS] | -0.801 ± 2.22 kJ/mol | 2.5 ± 0.46 kJ/mol
3 | SAGMVKVSLEKNPNGTPVVTVDVNEEGGPPVTVTLPVDPNETLSKVSAVLKKEGYPLPAGKKISELLSSAGG [r19_263_JUSTAS] | < -4.18 kJ/mol | -3.01 ± 1.05 kJ/mol
4 | SAGGSADSVMIPVESPEEIKEELQEGPPKRVELPNPDGERYWIQIDWDDPENIEVMPPDDPEKMKPSAGGSA [r15_11_TrROS] | 0.367 ± 1.17 kJ/mol | 3 ± 0.544 kJ/mol
5 | SAGGSAGGSAGGYFIRYPGNGREIMIPPDDIEDFLDTLPPGFPPENVKIYPFDPNGKPISAGGSAGGSAGGS [r10_13_TrROS] | < -4.18 kJ/mol | -1.01 ± 0.837 kJ/mol
6 | SAGGSAGGSAGGMNTNPKFVSEEDDKEIYREYNPSTGKETYIIYYPKPNTKKIVPPELISAGGSAGGSAGGS [r10_172_JUSTAS] | < -4.18 kJ/mol | -2.65 ± 0.962 kJ/mol
7 | SAGGSAGGSAPKPKIEPVNNTITIDIPPKENVQIFFPNGKQEEFPVEPGKEIKIPPGMYLYPSAGGSAGGSA [r18_452_TrROS] | < -4.18 kJ/mol | -1.49 ± 0.23 kJ/mol
8 | SAGGSAGGKIEIVIEGLSEEEVEALAKELRDAGLEIEVTVVPPPAPPPLTAEELAKNPEALKALSAGGSAGG [r6_804_TrROS_Hall] | 0.0836 ± 1.09 kJ/mol | 2.99 ± 0.222 kJ/mol
9 | SAGGSAMKTLTATFSDGRSVTVEPENRTVTVSTPESSISTIPVPPDVPEVTITTPSGVTITLTVDTSAGGSA [r2_385_JUSTAS] | -0.448 ± 0.502 kJ/mol | 1.2 ± 0.347 kJ/mol
10 | SAGGSAPVTPDELVERVMQYIQGQNGMPPGDTPEQMRDNGMPIKIPITVEDPDGEPIAEVEIEFPMSAGGSA [r15_391_TrROS] | -0.389 ± 1 kJ/mol | 2.66 ± 0.226 kJ/mol
11 | SAGGSAGGSAGQPKIGVLKEELIKETYTRPVPDSDETVKEERIVVKIIKKKLNIPENLLLSAGGSAGGSAGG [r17_530_JUSTAS] | < -4.18 kJ/mol | -1.87 ± 1.13 kJ/mol
12 | SAGGSAGGSAGLNITYTTTITYPDGTVVTEPVVSSGSLEEAIARARELEKKHPNVEVEVSPEGSAGGSAGGS [r12_268_JUSTAS] | -0.475 ± 0.962 kJ/mol | 1.66 ± 0.331 kJ/mol
13 | SAPDNIKVDINIERNPEDGHIRVEMEIEYPDGNEVYHSAWIDPDNGKIEIDVQVPNGKQIAEETIQIKPSAG [r14_524_TrROS] | < -4.18 kJ/mol | 0.694 ± 0.406 kJ/mol
14 | SAGGSAGGSAGGALVVEVEVEGERRTLVVPVPDEIPPGAEEVAKKLGLKDAKVKIAPLDLSAGGSAGGSAGG [r11_219_TrMRF] | < -4.18 kJ/mol | -2.77 ± 2.22 kJ/mol
15 | SAGVTVERKPGDGSLTVTVPADDGPLTIEVDLLPNTGTLKATVTYDDGTPATYTFPGGTLEDIIERLHSAGG [r19_159_TrMRF] | -0.64 ± 0.92 kJ/mol | -0.363 ± 0.368 kJ/mol
16 | SAGGHRMDIQFDGSPDKIEEIQKKIHKKWPDYKVDDIEVNPGNPDQVTIRIEMDNGIPMNEIQEALMSAGGS [r16_180_TrROS] | < -4.18 kJ/mol | -5.54 ± 0.92 kJ/mol
17 | SAGGSAGGSAGMIVIETPLSEYEKLKSPDIEVLEKSEGKVVIEIKVPPEPFYDEEGKPLKSAGGSAGGSAGG [r11_828_JUSTAS] | 1.2 ± 0.544 kJ/mol | 3.36 ± 0.142 kJ/mol
18 | SAPVKDKNGKKREVEIHIWVPEEERKKNGTPEQIKWLARERARAAGLKPDRIKEVKIKIMPPEDMPEGFSAG [r14_446_TrROS] | < -4.18 kJ/mol | -3.05 ± 2.26 kJ/mol
19 | SAGGSAMPPEWQREVVLTPVEIDIPEPPEVEVVEYDPSTGTITISVPKSPLTLTYDALTGTVHTIGSAGGSA [r15_452_JUSTAS] | -3.65 ± 1.97 kJ/mol | -2.04 ± 2.55 kJ/mol
20 | SAGGSTTITVPEEELEKKTGIPLGTPPEEVARKLDPVAKVTVTAVSSEKGPNGEPKRTVTFEVTPPQLSAGG [r13_723_JUSTAS] | < -4.18 kJ/mol | -0.988 ± 0.586 kJ/mol
